Measurements taken from patent publication US5637463.

Tests used:
Experiment in all cases: yeast two-hybrid with co-expressed Lck, LacZ reporter
[1] = molecular target: LexA-FcεRIγCT double mutant with Tyr64 and Tyr75 changed to phenylalanine, co-expressed with Lck (E. coli; human) (UniProt P0A7C2)
[2] = molecular target: LexA-FcεRIγCT mutant with Tyr64 changed to phenylalanine, co-expressed with Lck (E. coli; human) (UniProt P0A7C2)
[3] = molecular target: LexA-FcεRIγCT mutant with Tyr75 changed to phenylalanine, co-expressed with Lck (E. coli; human) (UniProt P0A7C2)
[4] = molecular target: LexA-NLS-FcεRIγ CT fusion protein, co-expressed with Lck (tyrosine-phosphorylated) (E. coli; human) (UniProt P0A7C2)
[5] = molecular target: LexA-βCT fusion protein (C-terminus of the rat β subunit of FcεRI), co-expressed with Lck (E. coli; rat)

Vmw65-SykN SH2 fusion protein (human Syk amino acids 11-111) (from UniProt P06492)
Galactosidase units (Galactosidase units) [1]: 0 | Galactosidase units (Galactosidase units) [2]: 0 | Galactosidase units (Galactosidase units) [3]: 0 | Galactosidase units (Galactosidase units) [4]: 0 | Galactosidase units (Galactosidase units) [5]: 0

Vmw65-Lyn SH2 fusion protein (human Lyn amino acids 124-229) (from UniProt P06492)
Galactosidase units (Galactosidase units) [1]: 0 | Galactosidase units (Galactosidase units) [2]: 0 | Galactosidase units (Galactosidase units) [3]: 0 | Galactosidase units (Galactosidase units) [4]: 0 | Galactosidase units (Galactosidase units) [5]: 858

Vmw65-Syk N+C SH2 fusion protein (human Syk amino acids 11-262) (from UniProt P06492)
Galactosidase units (Galactosidase units) [1]: 0 | Galactosidase units (Galactosidase units) [2]: 0 | Galactosidase units (Galactosidase units) [3]: 0 | Galactosidase units (Galactosidase units) [4]: 559 | Galactosidase units (Galactosidase units) [5]: 1070

Vmw65-SykC SH2 fusion protein (human Syk amino acids 173-262) (from UniProt P06492)
Galactosidase units (Galactosidase units) [1]: 0 | Galactosidase units (Galactosidase units) [2]: 0 | Galactosidase units (Galactosidase units) [3]: 0 | Galactosidase units (Galactosidase units) [4]: 0 | Galactosidase units (Galactosidase units) [5]: 593
